From patent US20170319690A1 (AGENCY FOR SCIENCE TECHNOLOGY AND RESEARCH, published 2017)
Substitutions are numbered along the chain they refer to.

Key:
[1] = target: biotinylated murine PD-L1 (murine) (UniProt Q9EP73); experiment: blocking ELISA; murine PD-L1 binding to murine PD-1 (the blocked partner) in the presence of the IgG
biotinylated human PD-L1 [2] = target: T1, biotinylated human PD-L1 (human, UniProt Q9NZQ7 19-239, limits assumed, biotinylated); experiment: blocking ELISA; biotinylated human PD-L1 pre-incubated with the Fab, then added to plate-coated human PD-1-Fc (the blocked partner); streptavidin-HRP/TMB
T1 construct: construct not described
T1 sequence (Q9NZQ7 19-239 limits assumed): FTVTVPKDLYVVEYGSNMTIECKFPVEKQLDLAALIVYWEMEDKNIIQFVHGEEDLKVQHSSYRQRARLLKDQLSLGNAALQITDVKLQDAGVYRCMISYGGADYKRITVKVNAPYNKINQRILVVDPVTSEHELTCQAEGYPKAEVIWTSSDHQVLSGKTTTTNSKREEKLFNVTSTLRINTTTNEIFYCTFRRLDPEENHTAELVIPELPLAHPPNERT

[3] = target: T2, human PD-L1 expressed on cells (human, UniProt Q9NZQ7 19-290); experiment: flow cytometry blocking assay; antibody mixed with human PD-1-PE (the blocked partner) and added to HEK293 cells transfected with human PD-L1
T2 construct: whole, on cells; also called PD-L1 transfected HEK 293 cells; HEK293-6E cells transfected with human PD-L1
T2 sequence (Q9NZQ7 19-290): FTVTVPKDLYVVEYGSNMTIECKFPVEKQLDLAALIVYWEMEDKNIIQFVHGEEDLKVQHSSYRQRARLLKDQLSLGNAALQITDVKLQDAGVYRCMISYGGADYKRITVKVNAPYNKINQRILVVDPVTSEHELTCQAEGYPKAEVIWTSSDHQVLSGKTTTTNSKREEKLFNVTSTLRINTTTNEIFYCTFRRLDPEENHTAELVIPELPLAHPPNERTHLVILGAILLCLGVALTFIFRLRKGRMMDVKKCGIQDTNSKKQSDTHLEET
Source text: Cells were washed 3 times with PBS and all data were collected on a BD FACSCanto II (BD Bioscience) and analysed on BD FACSDiva software (BD Bioscience).

biotinylated human PD-L1 [4] = target: T1, biotinylated human PD-L1; experiment: ELISA; antibody coated on the plate at 2 ug/mL, biotinylated human PD-L1 titrated (x axis: Human PD-L1, nM), streptavidin-HRP/TMB
Protocol: Binding was measured by ELISA. Antibodies were coated onto maxisorp plates at 2 μg/mL in coating buffer and incubated overnight at 4° C. The next day, plates were washed with wash buffer (PBS+0.05% Tween-20), and blocker with casein for 1 hour, at room temperature. Plates were then washed again using wash buffer. […] Plates were then washed again using wash buffer. […] Plates were then washed again using wash buffer. Finally, TMB was added to develop the ELISA; TMB conversion by HRP was stopped using 1M H—Cl.

biotinylated human PD-L1 [5] = target: T1, biotinylated human PD-L1; experiment: avidity ELISA; biotinylated human PD-L1 (0.2 ug/mL) captured on a neutravidin plate, IgG titrated, anti-human Fc-HRP/TMB
Protocol: Neutravidin was coated onto maxisorp plates at 2 μg/mL in coating buffer and incubated overnight at 4° C. The next day, plates were washed with wash buffer (PBS+0.05% Tween-20), and blocker with casein for 1 hour, at room temperature. Plates were then washed again using wash buffer. […] Plates were then washed again using wash buffer. The different antibodies were then added at various concentrations, and incubated for 1 hour at room temperature. Plates were then washed again using wash buffer. Anti-human Fc-HRP was then added and incubated for 1 hour at room temperature. Plates were then washed again using wash buffer. Finally, TMB was added to develop the ELISA; TMB conversion by HRP was stopped using 1M H—Cl.

Sequence of biotinylated murine PD-L1 (murine) (Q9EP73 19-238 limits assumed): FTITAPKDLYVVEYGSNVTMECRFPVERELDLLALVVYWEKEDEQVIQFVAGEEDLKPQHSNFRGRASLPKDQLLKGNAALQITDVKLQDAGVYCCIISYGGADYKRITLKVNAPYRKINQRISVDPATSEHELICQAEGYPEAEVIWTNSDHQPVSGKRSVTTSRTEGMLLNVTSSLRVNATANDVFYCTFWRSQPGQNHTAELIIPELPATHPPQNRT

“commercially available anti-murine PD-L1 IgG antibody 10F.9G2 (BioLegend)” showed an IC50 (read off the curve) [1] of 10 nM.

B1: anti-PD-L1 antibody clone A1, Fab format (Fab, V domains shown)
VH: QVQLQQSGAEVKKPGSSVKVSCKASGGTFSSYAISWVRQAPGQGLEWMGRIIPILGIANYAQKFQGRVTITADKSTSTAYMELSSLRSEDTAVYYCARGGSYGSLYAFDIWGQGTMVTVSS
VL: QSVLTQPPSVSAAPGQRVSISCSGRSSNIASHDVFWYQQLPGTAPKIVMYETNKRPWGIPDRFSGSKSGTSATLDIAGLQTGDEADYYCGAWDSGLTGMLFGGGTKVTVL
notes: Human Fab from a phage display library
B1 was tested, and the “IC50 (read off the curve)” value (biotinylated human PD-L1 [2]) was ~50 nM.

B2: anti-PD-L1 antibody H12_GL, IgG1 format (antibody, V domains shown)
VH: B1 VH with Q5V, G99S, S101H, Y102G, G103Y, L105Y, Y106G, I110Y, M116L
VL: QSVLTQPPSVSGAPGQRVTISCTGSSSNIGAGYDVHWYQQLPGTAPKLLIYGNSNRPSGVPDRFSGSKSGTSASLAITGLQAEDEADYYCQSYDSSLSGSYVVFGGGTKLTVL
notes: IgG1
B2 was tested, and the “IC50 (read off the curve)” value [3] was ~7 nM.

B3: anti-PD-L1 antibody H12_GL, IgG4 format (antibody, V domains shown)
VH: B1 VH with Q5V, G99S, S101H, Y102G, G103Y, L105Y, Y106G, I110Y, M116L
VL: B2 VL
notes: IgG4
In the case of B3, the “IC50 (read off the curve)” value [3] is reported as ~7 nM.

B4: anti-PD-L1 antibody clone C2, Fab format (Fab, V domains shown)
VH: B1 VH with M116T
VL: SYELTQPPSVSVAPGKTTRITCGGDNIGRKSVHWYQQRPGQAPLLLVYDDGDRPSGIPDRFSGSNSGNTATLTISGTQAMDEADYYCQAWDSTVVFGGGTRLTVL
notes: as for B1
For B4, the “IC50 (read off the curve)” value (biotinylated human PD-L1 [2]) was ~40 nM.

B5: anti-PD-L1 antibody C4 (format not stated in the example) (antibody, V domains shown)
VH: QVQLQQSGAEVKKPGSSVKVSCKASGGTFSSYAISWVRQAPGQGLEWMGRIIPILGIANYAQKFQGRVTITADKSTSTAYMELSSLRSEDTAVYYCARGGYGGNSLYAFDIWGQGTMVTVSS
VL: QSVVTQPPSVSAAPGQKVTISCSGSSSNIGNNYVSWYQQLPGTAPKLLIYDNNERLSGIPDRFSGSKSGTSATLGISGLQTGDEADYYCGTWDSSLSVVVFGGGTKLTVL
notes: detected with anti-human Fc-HRP in the avidity ELISA, so it carried an Fc there
For B5, the “EC50 (read off the curve)” value (biotinylated human PD-L1 [4]) was ~0.9 nM and the “EC50 (read off the curve)” value (biotinylated human PD-L1 [5]) was ~0.9 nM.

B6: anti-PD-L1 antibody H12, IgG1 format (antibody, V domains shown)
VH: EVQLVQSGAEVKKPGASVKVSCKASGGTFSSYAISWVRQAPGQGLEWMGRIIPILGIANYAQKFQGRVTITADKSTSTAYMELSSLRSEDTAVYYCARSGHGYSYGAFDYWGQGTL
VL: B2 VL
notes: IgG1
In the case of B6, the “IC50 (read off the curve)” value [3] is reported as ~9 nM.

B7: anti-PD-L1 antibody H12, IgG4 format (antibody, V domains shown)
VH: B6 VH
VL: B2 VL
notes: IgG4
For B7, the “IC50 (read off the curve)” value [3] was ~9 nM.
